Experimental data from the DeepSol protein solubility set.

test: soluble on expression in E. coli; label from the status in PepcDB or PDB records

Sequence	soluble on expression in E. coli
MSLNQASLERNELHNTIWKVANELRGSVDGWDFKQYVLGILFYRYISENMTHYINKEERKRDPSFDYAKLSDEKAERGRKHLIEQKGFFIPPSALFCNALKNACHNEDLNVTLQNIFNEIEKSSLGTPSEENVKGLFADLDVNSNKLGSSHQNRVEKLTKILEAIGGMQLGDYLKSGIDVFGDAYEYLMAMYASNAGKSGGEFFTPQEVSELLAKITLHGQESVNKVYDPCCGSGSLLLQFSKVLGDKNVSKGYFGQEINLTTYNLCRINMFLHDINYSKFHIAHGDTLLDPKHEDDEPFDAIVSNPPYSTKWVGDSNPILINDERFSPAGVLAPKNAADLAFTMHMLSYLSNSGTAAIVEFPGVLYRGNAEAKIREYLVKENVIDCVIALPDNLFFGTSIATCILVLKKNEGHHHHHH	not soluble
MGSDKIHHHHHHMTGEKVHLTGAKETLLMTLYGKALESRLPHSLLGDHFADEAVRKIDYDFSRLKVDENLGIGLAIRAKTLDVRVEDFLARNPGAIVLHLGCGLDTRVFRVDPPPGVDWFDADYPQVIELRRKLYPPRDHYHLIASSVTEPGWLAEVPRNRPAMVVAEGLTPYLPADEGLRLVSRLVSHLAGGELMFDAYSRFGLTLLRLSPTIKATGAEVHWAIDDPHELELAVPKLRFVEDISAYMPEHAARMGWSAKLFVRLWKHIPALRKVGRLLRYRF	not soluble
MKRGTITIDGKGNVHIPSTPVWMSACEIADLFGAFSGKVSVQIKTIFKEGLLMETEAMRTIQSGQGFIDLYGIEMITMLSFRIATPQAKTLRRWIIDRLSGKNSSSSPLIVCYTLGKRYN	not soluble
MARRRRAEVRQLQPDLVYGDVLVTAFINKIMRDGKKNLAARIFYDACKIIQEKTGQEPLKVFKQAVENVKPRMEVRSRRVGGANYQVPMEVSPRRQQSLALRWLVQAANQRPERRAAVRIAHELMDAAEGKGGAVKKKEDVERMAEANRAYAHYRW	soluble
MGSDKIHHHHHHMAKLMNNKLKKEIIDFAHSIGIDSIGFTTADPFDELKQKLEEYHAKGYASGFEESNISLRTEPKLSLPSARSIIAIAVGYPNKLKGAPKSVKGDRRGMFARASWGQDYHSIMRKRLDKLADFIKEKVPDVEIQSMVDTGVLSDRAVAERAGLGFTGRNGFVISPELGTWSYLGEMLVSIPFEPDDPLLDSCGDCTICVDRCPTGALVGNGQLNSQKCISFLTQTKGYLQDEYRYKIGNRLYGCDTCQQVCPKNRGINTQHDDIVLEPEILKPRLVPLLQMSNKKFKSTYGHLAGAWRGKKPIQRNAIIALAHFKEESAIPELKEVALNDPRPMIRGTAYWAIGQILEDDAISFIDEHYENEIEEVQLEMKKGLQMRREQK	not soluble
MLSLATFFITMTTHRKPSQEQGFLNGQFLLAMPGMSDERFARSVVYICAHSDEGAMGFIINQLQPVQFPDLLRQIGVIGEEDLIILPDRAQHMVVRNGGPVDRTRGFVLHSDDYMVDSTMPVSDDVCLTATVDILRAIYGGGGPERALMALGYSGWAPGQLEMEVAENGWLTCDAPLDMLFDSDIEGKYSRLMLHMGIDMSRLVSDAGHAAADPLEHHHHHH	not soluble
MGHHHHHHSHMDVVDPDIFNRDPRDHYDLLQRLGGGTYGEVFKARDKVSGDLVALKMVKMEPDDDVSTLQKEILILKTCRHANIVAYHGSYLWLQKLWICMEFCGAGSLQDIYQVTGSLSELQISYVCREVLQGLAYLHSQKKIHRDIKGANILINDAGEVRLADFGISAQIGATLARRLSFIGTPYWMAPEVAAVALKGGYNELCDIWSLGITAIELAELQPPLFDVHPLRVLFLMTKSGYQPPRLKEKGKWSAAFHNFIKVTLTKSPKKRPSATKMLSHQLVSQPGLNRGLILDLLDKLKNPGKGPSIGDIEDEEPELPPAIPRRIRSTHRSSSLGIPDADCCRRHMEFRKLRGMETRPPANTARLQPPRDLRSSSPRKQLSES	soluble
MIMANILFIDNFDSFTYNLVDQFRSLGHVVTIYRNNLSADAIEQALLQLDNPVVVLSPGPGAPSETGCMPELLQRLKGKVPMIGICLGHQAIVEAYGGVVAGAGEIIHGKVSMMEHQNHAIYRGLPSPLAIARYHSLVATQVPSALTVTAEVNGLVMSVVNEADKVCGFQFHPESIMTTHGATLLANAIDWALSSTPAQTQFA	not soluble
MNPSVKIVVLSLPTATARRSQMSAMLGNTSLDWQYFDAHASLMCPNLHYDGAELRRHFGRNLSPPEIAVCSSHAAILQEFVDRNQADYILVLEDDVIFDTDFPLDQFCAFCASNGLEYVRLFGKHYAKAVHLGFFYDRSIVRFTTSPAGAQAYLMSRMAARRFLDSYQSIRATVDLAMDSFWITQLPIYSIFPYPIIERFSPTSIPMPPHTVEVRGLEHAIWQGARVVNKAKKILTNAKLRKSDESLRQRHWQFRQVGRVDVEQRRDPAAALEHHHHHH	soluble
